Assay results reported in patent US20150329626A1 (Eli Lilly, published 2015).
Each block holds one binder with its values, some of them ahead of it.

Columns and labels:
human Ang2 [1] = target: T1, human Ang2 (human, UniProt O15123 19-496); test: Biacore SPR, 25 C, compound captured on Protein A, Ang2 as analyte
T1 construct: also called hAng2; human angiopoietin-2
T1 sequence: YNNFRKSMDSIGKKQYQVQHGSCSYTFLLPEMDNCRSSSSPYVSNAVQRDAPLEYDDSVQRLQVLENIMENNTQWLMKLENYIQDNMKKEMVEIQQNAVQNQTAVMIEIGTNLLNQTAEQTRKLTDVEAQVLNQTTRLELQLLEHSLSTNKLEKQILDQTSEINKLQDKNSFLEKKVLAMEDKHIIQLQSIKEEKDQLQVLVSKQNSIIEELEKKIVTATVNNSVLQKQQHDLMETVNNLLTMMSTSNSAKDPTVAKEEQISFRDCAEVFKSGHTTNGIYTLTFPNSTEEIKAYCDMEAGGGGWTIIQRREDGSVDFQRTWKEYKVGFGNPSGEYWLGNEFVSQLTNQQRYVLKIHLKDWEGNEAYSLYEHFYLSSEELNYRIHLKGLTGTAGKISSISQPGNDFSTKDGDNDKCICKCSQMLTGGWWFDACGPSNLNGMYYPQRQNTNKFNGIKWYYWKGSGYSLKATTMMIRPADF

[2] = target: T2, human VEGFR2 extracellular domain (human, UniProt P35968 20-764); test: Biacore SPR, 25 C, compound captured on Protein A, VEGFR2-ECD as analyte
T2 construct: also called hVEGFR2-ECD; human VEGFR2-ECD
T2 sequence (P35968 20-764): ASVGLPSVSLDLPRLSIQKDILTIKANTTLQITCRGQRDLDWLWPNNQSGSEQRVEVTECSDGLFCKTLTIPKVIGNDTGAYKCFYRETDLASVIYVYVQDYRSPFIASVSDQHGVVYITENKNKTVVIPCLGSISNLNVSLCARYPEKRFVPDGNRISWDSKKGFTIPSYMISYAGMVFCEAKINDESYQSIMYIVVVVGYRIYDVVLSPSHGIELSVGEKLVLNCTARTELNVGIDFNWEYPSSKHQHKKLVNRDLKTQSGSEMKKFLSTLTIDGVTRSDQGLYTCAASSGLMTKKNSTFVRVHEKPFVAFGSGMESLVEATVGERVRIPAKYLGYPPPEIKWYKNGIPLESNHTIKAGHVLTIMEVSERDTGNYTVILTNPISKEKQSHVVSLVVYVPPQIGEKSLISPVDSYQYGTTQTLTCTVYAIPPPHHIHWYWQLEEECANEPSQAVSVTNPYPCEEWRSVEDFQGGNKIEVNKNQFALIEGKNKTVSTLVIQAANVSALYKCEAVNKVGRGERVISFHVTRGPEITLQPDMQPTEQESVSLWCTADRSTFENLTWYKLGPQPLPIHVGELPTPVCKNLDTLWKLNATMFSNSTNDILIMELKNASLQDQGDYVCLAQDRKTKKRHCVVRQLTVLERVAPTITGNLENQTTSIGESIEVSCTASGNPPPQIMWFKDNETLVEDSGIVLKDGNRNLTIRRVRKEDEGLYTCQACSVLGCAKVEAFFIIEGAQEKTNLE

[3] = target: human VEGFR2 on cells (ECFC, HMVEC-d) (human, UniProt P35968 20-1356); test: cell-based or functional assay
human Ang2 [4] = target: T1, human Ang2; test: cell-based or functional assay
mouse Ang2 = target: T3, mouse Ang2 (mouse, UniProt O35608 19-496, limits assumed); test: Biacore SPR, 37 C, n = 3, compound captured on Protein A
T3 sequence (looked up): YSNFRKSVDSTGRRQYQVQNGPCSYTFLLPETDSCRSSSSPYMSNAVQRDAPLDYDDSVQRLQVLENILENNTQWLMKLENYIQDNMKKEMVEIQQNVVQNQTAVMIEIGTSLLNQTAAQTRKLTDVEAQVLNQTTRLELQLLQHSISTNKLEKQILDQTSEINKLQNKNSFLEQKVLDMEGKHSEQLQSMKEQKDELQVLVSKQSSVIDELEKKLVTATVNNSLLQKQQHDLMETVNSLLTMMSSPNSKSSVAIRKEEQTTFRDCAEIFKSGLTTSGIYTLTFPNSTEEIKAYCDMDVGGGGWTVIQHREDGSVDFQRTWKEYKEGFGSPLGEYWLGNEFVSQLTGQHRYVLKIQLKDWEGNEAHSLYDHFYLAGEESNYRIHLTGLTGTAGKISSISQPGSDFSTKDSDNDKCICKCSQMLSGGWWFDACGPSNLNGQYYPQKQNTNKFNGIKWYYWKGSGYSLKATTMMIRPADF

rabbit Ang2 = target: T4, rabbit Ang2 (rabbit, UniProt G1T9B3 19-496); test: as above
T4 sequence: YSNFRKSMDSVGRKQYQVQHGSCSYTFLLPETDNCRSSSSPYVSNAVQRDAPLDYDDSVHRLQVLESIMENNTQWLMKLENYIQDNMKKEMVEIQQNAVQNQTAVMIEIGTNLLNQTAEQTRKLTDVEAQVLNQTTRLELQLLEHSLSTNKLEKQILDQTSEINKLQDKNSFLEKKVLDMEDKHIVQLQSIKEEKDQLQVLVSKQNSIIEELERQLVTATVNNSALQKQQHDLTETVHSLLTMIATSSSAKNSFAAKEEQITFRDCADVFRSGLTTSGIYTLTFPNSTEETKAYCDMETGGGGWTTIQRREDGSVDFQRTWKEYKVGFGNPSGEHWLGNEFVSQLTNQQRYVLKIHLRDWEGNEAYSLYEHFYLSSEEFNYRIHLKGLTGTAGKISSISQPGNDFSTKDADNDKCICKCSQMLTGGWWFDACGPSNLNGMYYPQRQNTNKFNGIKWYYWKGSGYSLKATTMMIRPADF

dog Ang2 = target: T5, dog Ang2 (dog, UniProt A0A8J8 19-495, limits assumed); test: as above
T5 sequence (looked up): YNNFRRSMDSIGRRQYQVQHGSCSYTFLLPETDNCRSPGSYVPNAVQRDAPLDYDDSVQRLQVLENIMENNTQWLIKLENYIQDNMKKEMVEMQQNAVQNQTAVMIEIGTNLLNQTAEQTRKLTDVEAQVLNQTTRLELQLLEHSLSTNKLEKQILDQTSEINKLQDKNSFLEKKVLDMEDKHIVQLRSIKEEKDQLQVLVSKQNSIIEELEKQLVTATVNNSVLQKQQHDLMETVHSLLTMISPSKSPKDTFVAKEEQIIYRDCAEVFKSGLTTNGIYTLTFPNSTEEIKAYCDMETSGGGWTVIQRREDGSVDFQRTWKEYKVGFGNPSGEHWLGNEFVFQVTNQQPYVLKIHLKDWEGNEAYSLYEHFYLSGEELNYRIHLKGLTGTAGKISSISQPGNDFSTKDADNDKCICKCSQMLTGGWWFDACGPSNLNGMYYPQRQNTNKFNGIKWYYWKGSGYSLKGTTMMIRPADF

human Ang2 [5] = target: T1, human Ang2; test: as above
cyno Ang2 = target: T6, cyno Ang2 (cynomolgus monkey, UniProt A0A2K5VNX6 19-496); test: as above
T6 construct: also called cynomolgus monkey Ang2
T6 sequence: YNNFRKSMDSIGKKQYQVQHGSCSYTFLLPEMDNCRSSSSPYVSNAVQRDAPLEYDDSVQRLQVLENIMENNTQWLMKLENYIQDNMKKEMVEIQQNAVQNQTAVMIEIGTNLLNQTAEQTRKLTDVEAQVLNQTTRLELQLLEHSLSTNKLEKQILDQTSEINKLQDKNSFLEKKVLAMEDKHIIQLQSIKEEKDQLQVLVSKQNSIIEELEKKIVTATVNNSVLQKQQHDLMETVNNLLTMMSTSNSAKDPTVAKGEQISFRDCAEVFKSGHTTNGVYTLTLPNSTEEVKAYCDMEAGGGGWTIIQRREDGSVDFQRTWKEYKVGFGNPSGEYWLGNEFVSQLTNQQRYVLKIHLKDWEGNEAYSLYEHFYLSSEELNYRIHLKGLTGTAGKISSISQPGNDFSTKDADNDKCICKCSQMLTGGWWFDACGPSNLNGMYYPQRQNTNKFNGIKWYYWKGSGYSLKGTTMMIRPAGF

[6] = target: T2, human VEGFR2 extracellular domain; test: Biacore SPR, 37 C, n = 3, compound captured on Protein A, VEGFR2-ECD as analyte
[7] = target: T7, cyno VEGFR2 extracellular domain (cynomolgus monkey, UniProt A0A2K5VE63 20-764); test: as above
T7 construct: extracellular domain; also called cynomolgus monkey VEGFR2
T7 sequence (A0A2K5VE63 entry or part of it): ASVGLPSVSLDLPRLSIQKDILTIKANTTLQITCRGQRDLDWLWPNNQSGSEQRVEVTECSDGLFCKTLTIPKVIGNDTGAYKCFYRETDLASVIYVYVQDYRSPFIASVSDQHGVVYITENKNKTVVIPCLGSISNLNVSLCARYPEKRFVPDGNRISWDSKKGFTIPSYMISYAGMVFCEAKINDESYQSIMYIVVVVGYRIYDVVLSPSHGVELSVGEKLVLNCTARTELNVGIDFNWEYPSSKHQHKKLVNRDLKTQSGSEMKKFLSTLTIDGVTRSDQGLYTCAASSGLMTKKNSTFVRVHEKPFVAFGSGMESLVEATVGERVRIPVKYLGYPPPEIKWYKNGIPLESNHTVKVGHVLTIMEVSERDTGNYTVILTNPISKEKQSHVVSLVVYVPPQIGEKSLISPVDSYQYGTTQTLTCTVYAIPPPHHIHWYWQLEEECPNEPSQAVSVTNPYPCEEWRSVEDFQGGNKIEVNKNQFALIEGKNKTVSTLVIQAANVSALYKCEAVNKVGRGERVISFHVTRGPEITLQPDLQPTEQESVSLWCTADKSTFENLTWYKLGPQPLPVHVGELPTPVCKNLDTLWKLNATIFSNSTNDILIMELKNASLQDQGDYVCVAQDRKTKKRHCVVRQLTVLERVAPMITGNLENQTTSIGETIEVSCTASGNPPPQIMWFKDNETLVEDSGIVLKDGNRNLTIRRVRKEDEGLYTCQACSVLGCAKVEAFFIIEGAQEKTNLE

[8] = target: T8, rabbit VEGFR2 extracellular domain (rabbit, UniProt G1SN50 20-764); test: as above
T8 construct: extracellular domain
T8 sequence (G1SN50 entry or part of it): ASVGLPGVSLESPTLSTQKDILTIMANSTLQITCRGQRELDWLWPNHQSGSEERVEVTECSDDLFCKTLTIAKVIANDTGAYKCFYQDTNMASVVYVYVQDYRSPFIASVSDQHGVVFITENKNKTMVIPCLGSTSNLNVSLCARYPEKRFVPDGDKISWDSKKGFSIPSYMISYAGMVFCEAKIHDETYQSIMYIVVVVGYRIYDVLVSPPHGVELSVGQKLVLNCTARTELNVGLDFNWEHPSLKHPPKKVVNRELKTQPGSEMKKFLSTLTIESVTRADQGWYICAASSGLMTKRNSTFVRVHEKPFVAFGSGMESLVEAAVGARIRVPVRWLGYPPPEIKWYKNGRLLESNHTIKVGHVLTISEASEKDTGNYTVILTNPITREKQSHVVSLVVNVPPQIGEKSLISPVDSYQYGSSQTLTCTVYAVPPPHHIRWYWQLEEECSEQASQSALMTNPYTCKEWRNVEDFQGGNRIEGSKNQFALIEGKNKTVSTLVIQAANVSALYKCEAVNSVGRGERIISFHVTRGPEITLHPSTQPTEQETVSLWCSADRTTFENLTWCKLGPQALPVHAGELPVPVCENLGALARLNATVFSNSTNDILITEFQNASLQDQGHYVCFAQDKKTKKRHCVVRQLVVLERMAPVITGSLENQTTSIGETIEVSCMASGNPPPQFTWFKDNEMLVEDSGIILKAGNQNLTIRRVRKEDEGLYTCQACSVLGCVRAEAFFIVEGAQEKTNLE

[9] = target: T9, dog VEGFR2 extracellular domain (dog, UniProt Q2XPT7 20-763); test: as above
T9 construct: extracellular domain

human Ang2 [10] = target: T1, human Ang2; test: competition ELISA: blocking of biotinylated human Ang2 binding to plate-coated human Tie2-Fc

B1: Compound A (bispecific antibody, human IgG1, kappa)
heavy: not shown
light: DIQMTQSPSSVSASIGDRVTITCRASQGIDNWLGWYQQKPGKAPKLLIYDASNLDTGVPSRFSGSGSGTYFTLTISSLQAEDFAVYFCQQAKAFPPTFGGGTKVDIKRTVAAPSVFIFPPSDEQLKSGTASVVCLLNNFYPREAKVQWKVDNALQSGNSQESVTEQDSKDSTYSLSSTLTLSKADYEKHKVYACEVTHQGLSSPVTKSFNRGEC
- Kd (human Ang2 [1]): < 0.1 nM
- koff (human Ang2 [1]): < 1e-05 s⁻¹
- kon (human Ang2 [1]): 183000 M⁻¹ s⁻¹
- Kd [2]: 0.711 nM
- koff [2]: 4.8e-05 s⁻¹
- kon [2]: 68000 M⁻¹ s⁻¹

B2: Compound B (bispecific antibody, human IgG4 S228P, kappa, F234A L235A)
heavy: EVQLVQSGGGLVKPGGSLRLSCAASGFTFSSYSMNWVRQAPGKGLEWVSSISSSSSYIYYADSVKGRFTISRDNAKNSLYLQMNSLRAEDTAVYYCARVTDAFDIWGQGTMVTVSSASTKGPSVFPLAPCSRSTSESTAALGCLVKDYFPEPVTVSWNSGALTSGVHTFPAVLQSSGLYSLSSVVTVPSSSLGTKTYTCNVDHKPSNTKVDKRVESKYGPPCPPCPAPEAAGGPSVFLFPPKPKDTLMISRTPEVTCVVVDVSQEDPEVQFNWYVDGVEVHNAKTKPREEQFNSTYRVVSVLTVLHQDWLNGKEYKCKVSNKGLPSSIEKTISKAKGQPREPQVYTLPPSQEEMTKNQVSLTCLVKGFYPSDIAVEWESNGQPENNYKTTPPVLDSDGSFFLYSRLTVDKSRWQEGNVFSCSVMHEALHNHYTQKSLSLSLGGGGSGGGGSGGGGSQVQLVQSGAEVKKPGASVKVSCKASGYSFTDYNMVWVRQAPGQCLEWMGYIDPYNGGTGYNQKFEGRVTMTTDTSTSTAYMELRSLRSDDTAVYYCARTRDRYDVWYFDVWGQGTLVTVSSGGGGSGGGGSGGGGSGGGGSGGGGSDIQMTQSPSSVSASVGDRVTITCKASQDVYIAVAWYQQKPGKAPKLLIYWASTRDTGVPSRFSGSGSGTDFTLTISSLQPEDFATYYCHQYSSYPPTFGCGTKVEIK
light: DIQMTQSPSSVSASIGDRVTITCRASQGIDNWLGWYQQKPGKAPKLLIYDASNLDTGVPSRFSGSGSGTYFTLTISSLQAEDFAVYFCQQAKAFPPTFGGGTKVDIKRTVAAPSVFIFPPSDEQLKSGTASVVCLLNNFYPREAKVQWKVDNALQSGNSQESVTEQDSKDSTYSLSSTLTLSKADYEKHKVYACEVTHQGLSSPVTKSFNRGEC
- Kd (human Ang2 [1]): < 0.1 nM
- koff (human Ang2 [1]): < 1e-05 s⁻¹
- kon (human Ang2 [1]): 285000 M⁻¹ s⁻¹
- Kd [2]: 0.513 nM
- koff [2]: 4.1e-05 s⁻¹
- kon [2]: 81000 M⁻¹ s⁻¹

B4: Compound E (bispecific antibody, human IgG4 S228P, kappa, F234A L235A)
heavy: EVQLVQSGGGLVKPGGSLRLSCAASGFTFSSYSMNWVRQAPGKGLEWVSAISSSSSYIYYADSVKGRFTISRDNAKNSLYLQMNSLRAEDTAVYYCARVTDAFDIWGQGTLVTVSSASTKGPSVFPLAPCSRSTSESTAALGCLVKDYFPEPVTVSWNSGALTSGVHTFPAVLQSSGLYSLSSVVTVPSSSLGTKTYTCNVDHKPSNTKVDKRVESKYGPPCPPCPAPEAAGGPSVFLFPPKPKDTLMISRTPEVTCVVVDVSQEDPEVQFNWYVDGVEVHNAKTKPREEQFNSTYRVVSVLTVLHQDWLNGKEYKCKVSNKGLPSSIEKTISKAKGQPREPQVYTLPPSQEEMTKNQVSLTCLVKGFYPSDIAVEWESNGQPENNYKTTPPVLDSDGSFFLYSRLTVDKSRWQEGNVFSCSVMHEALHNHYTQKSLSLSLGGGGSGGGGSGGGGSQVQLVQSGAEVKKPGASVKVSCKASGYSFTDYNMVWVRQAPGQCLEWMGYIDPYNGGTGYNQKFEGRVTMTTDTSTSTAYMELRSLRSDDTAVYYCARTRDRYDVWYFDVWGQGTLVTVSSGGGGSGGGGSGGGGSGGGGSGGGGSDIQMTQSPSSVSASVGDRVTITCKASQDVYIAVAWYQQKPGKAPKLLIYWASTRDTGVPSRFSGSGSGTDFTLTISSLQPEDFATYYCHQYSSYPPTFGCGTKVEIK
light: DIQMTQSPSSVSASVGDRVTITCRASQGIDNWLTWYQQKPGKAPKLLIVEASSLQSGVPSRFSGSGSGTDFTLTISSLQPEDFATYYCQQAKAFPPTFGGGTKVDIKRTVAAPSVFIFPPSDEQLKSGTASVVCLLNNFYPREAKVQWKVDNALQSGNSQESVTEQDSKDSTYSLSSTLTLSKADYEKHKVYACEVTHQGLSSPVTKSFNRGEC
- Kd (human Ang2 [1]): 0.407 nM
- koff (human Ang2 [1]): 9.7e-05 s⁻¹
- kon (human Ang2 [1]): 239000 M⁻¹ s⁻¹
- Kd [2]: 1.11 nM
- koff [2]: 3.5e-05 s⁻¹
- kon [2]: 32000 M⁻¹ s⁻¹

Second part, the binder after the results:

- inhibition of human VEGF165-induced proliferation of HMVEC-d (IC50) [3]: 19.2 nM
- inhibition of human VEGF-induced cord formation in ADSC/ECFC co-culture (IC50) [3]: 6.04 nM
- inhibition of human Ang2 induced phospho-Tie2 in CHO-Tie2 cells (IC50) (human Ang2 [4]): 0.587 nM
- Kd (mouse Ang2): 0.23 nM
- koff (mouse Ang2): 8e-05 s⁻¹
- kon (mouse Ang2): 360000 M⁻¹ s⁻¹
- Kd (rabbit Ang2): 0.42 nM
- koff (rabbit Ang2): 0.00011 s⁻¹
- kon (rabbit Ang2): 270000 M⁻¹ s⁻¹
- Kd (dog Ang2): 0.24 nM
- koff (dog Ang2): 9e-05 s⁻¹
- kon (dog Ang2): 360000 M⁻¹ s⁻¹
- Kd (human Ang2 [5]): 0.1 nM
- koff (human Ang2 [5]): 7e-05 s⁻¹
- kon (human Ang2 [5]): 820000 M⁻¹ s⁻¹
- Kd (cyno Ang2): 0.3 nM
- koff (cyno Ang2): 0.00028 s⁻¹
- kon (cyno Ang2): 960000 M⁻¹ s⁻¹
- Kd (human Ang2 [1]): 0.673 nM
- koff (human Ang2 [1]): 0.000105 s⁻¹
- kon (human Ang2 [1]): 156000 M⁻¹ s⁻¹
- Kd [2]: 0.721 nM
- koff [2]: 1.8e-05 s⁻¹
- kon [2]: 25000 M⁻¹ s⁻¹
- Kd [6]: 4.6 nM
- koff [6]: 0.00012 s⁻¹
- kon [6]: 25000 M⁻¹ s⁻¹
- Kd [7]: 3.3 nM
- koff [7]: 0.00011 s⁻¹
- kon [7]: 34000 M⁻¹ s⁻¹
- Kd [8]: 6.1 nM
- koff [8]: 0.00023 s⁻¹
- kon [8]: 38000 M⁻¹ s⁻¹
- Kd [9]: 37 nM
- koff [9]: 0.0015 s⁻¹
- kon [9]: 41000 M⁻¹ s⁻¹
- IC50 (human Ang2 [10]): 0.034 nM
B3: Compound F (bispecific antibody, human IgG4 S228P, kappa, F234A L235A)
heavy: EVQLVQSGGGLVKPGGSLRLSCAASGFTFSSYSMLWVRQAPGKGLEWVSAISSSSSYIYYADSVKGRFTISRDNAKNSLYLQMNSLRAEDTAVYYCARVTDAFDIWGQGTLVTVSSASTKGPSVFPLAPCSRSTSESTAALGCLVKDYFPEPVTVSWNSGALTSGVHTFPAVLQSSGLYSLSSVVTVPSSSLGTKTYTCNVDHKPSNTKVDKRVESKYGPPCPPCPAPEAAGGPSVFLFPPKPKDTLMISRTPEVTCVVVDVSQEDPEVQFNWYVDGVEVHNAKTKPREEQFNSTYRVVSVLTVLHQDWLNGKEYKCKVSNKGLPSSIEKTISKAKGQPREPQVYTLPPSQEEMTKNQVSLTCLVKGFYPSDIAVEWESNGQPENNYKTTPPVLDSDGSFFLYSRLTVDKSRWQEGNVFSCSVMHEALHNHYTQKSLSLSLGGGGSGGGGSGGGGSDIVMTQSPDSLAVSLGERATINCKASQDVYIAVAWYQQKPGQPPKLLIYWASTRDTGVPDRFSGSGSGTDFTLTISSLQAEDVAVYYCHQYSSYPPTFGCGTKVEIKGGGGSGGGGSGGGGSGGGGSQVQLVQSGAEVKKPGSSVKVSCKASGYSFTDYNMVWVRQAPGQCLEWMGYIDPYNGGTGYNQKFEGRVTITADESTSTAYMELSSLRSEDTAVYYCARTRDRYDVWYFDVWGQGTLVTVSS
light: DIQMTQSPSSVSASVGDRVTITCRASRGIDNWLTWYQQKPGKAPKLLIYEASSLQSGVPSRFSGSGSGTDFTLTISSLQPEDFATYYCQQAKAFPPTFGGGTKVDIKRTVAAPSVFIFPPSDEQLKSGTASVVCLLNNFYPREAKVQWKVDNALQSGNSQESVTEQDSKDSTYSLSSTLTLSKADYEKHKVYACEVTHQGLSSPVTKSFNRGEC
notes: also called Cmpd F

- Kd (human Ang2 [1]): 0.462 nM
- koff (human Ang2 [1]): 0.000105 s⁻¹
- kon (human Ang2 [1]): 226000 M⁻¹ s⁻¹
- Kd [2]: 0.528 nM
- koff [2]: 2e-05 s⁻¹
- kon [2]: 38000 M⁻¹ s⁻¹
B5: Compound C (bispecific antibody, human IgG4 S228P, kappa, F234A L235A)
heavy: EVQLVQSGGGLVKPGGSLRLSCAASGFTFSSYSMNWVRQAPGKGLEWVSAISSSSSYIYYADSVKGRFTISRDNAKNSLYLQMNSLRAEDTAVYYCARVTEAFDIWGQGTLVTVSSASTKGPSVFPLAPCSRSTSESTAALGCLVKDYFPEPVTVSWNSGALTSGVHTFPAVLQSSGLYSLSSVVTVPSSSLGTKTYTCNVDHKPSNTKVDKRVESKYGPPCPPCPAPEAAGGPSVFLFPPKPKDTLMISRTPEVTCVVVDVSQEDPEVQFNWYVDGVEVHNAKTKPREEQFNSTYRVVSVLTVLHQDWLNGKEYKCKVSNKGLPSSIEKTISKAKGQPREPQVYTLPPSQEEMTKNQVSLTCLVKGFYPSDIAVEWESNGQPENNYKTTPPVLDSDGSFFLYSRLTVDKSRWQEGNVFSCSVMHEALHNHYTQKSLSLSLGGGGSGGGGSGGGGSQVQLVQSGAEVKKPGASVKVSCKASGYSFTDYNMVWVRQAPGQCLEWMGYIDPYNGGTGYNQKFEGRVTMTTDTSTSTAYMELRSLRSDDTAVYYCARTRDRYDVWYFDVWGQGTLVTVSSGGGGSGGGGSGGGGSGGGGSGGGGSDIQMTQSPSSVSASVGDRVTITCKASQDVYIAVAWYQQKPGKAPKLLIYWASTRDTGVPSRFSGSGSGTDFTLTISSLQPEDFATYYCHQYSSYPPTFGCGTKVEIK
light: DIQMTQSPSSVSASVGDRVTITCRASRGIDNWLTWYQQKPGKAPKLLIYEASSLQSGVPSRFSGSGSGTDFTLTISSLQPEDFATYYCQQAKAFPPTFGGGTKVDIKRTVAAPSVFIFPPSDEQLKSGTASVVCLLNNFYPREAKVQWKVDNALQSGNSQESVTEQDSKDSTYSLSSTLTLSKADYEKHKVYACEVTHQGLSSPVTKSFNRGEC

- Kd (human Ang2 [1]): 0.489 nM
- koff (human Ang2 [1]): 8.6e-05 s⁻¹
- kon (human Ang2 [1]): 175000 M⁻¹ s⁻¹
- Kd [2]: 0.86 nM
- koff [2]: 2.9e-05 s⁻¹
- kon [2]: 34000 M⁻¹ s⁻¹
B6: Compound D (bispecific antibody, human IgG4 S228P, kappa, F234A L235A)
heavy: not shown
light: DIQMTQSPSSVSASVGDRVTITCRASQGIDNWLTWYQQKPGKAPKLLIVEASSLQSGVPSRFSGSGSGTDFTLTISSLQPEDFATYYCQQAKRFPPTFGGGTKVDIKRTVAAPSVFIFPPSDEQLKSGTASVVCLLNNFYPREAKVQWKVDNALQSGNSQESVTEQDSKDSTYSLSSTLTLSKADYEKHKVYACEVTHQGLSSPVTKSFNRGEC
